{
  "source": "the nanobody polyreactivity screen of Harvey et al. (2022)",
  "data": [
    {"assay": "yeast display, Sf9 membrane polyspecificity reagent, FACS + sequencing; frameworks hold sequencing errors", "outline": "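A nanobody's polyreactivity label depends on the gate it was sorted from. Yeast display cells were stained with 10% biotinylated, detergent-solubilized Sf9 membrane reagent for 1 hour at 4 °C, enriched on streptavidin microbeads and sorted by FACS. The low and high (top ~1%) gates were set on anti-HA fluorescence for expression and streptavidin fluorescence for reagent binding.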", "values": [
      {"sequence": "PVQIVESGGGLVQAGGRLRLSCAASGSILVPYAMGWSRQAPGKERELVADISIRTGSTYYADSVKGRFTISRDNAKNTVYLQMYSLKPEETAVYYCNAAHRKPYTGLYYWGQGTQVTVSS", "polyreactivity (PSR sort gate)": "high polyreactivity"},
      {"sequence": "PVQLQESGGGLVQAGGSLRLSCAASGNIFDADIMGWYRQAPGKESELVACIADGGSTNYAESVKGRFTISRDNAKNTVYLQMNRLKPEDTAVYYCAAIAYPDIPTCFDYDSDYFFRGQGTQVTVSS", "polyreactivity (PSR sort gate)": "low polyreactivity"},
      {"sequence": "PVQLVESGGGLDQAGGSLRLTCAASGSIFYYNAKGWYRQSPGKERELVAAISSDGGTYYADSVKARFTISRDNAKKTVYLQMNSLKPEDTAVYYCAASQPSTYDYWGQGTQLTVSS", "polyreactivity (PSR sort gate)": "high polyreactivity"},
      {"sequence": "PVQLVESGGGLVHAGGSLRLSCAASGLTFRYYAMGLYRQAPGKERELVASISWSGASTYYADSVKGRFTISRDNAKNTVYLQMNSLKPEDTEVYYCNAGYYGSYDYWGQGTQVTVSS", "polyreactivity (PSR sort gate)": "high polyreactivity"},
      {"sequence": "PVQLVESGGGLVPGGGSLRLSCAASGRIFNAYARGWYRQAPGKERELVAAISSRGGSTYYADSVKGRCTISRDNAKNSVYLQKNSLPPEDTAVYYCAAGIYTATGYGYWGQGTQVTVSS", "polyreactivity (PSR sort gate)": "high polyreactivity"},
      {"sequence": "PVQLVESGGGLVQAGGSLRLSCAACGSIIAGYAMGWYRQAPGKERELVAAISWSGGGTYYADSVKGRFTISRDNAKNTVYLQMNSLKPEDTAVYYCNAYGYRHRGNGYWGQGTQVTVSS", "polyreactivity (PSR sort gate)": "high polyreactivity"},
      {"sequence": "PVQLVESGGGLVQAGGSLRLSCAASGFTFPNYAMGWYRQAPGKERELVAVITYSGGSTYYADTVKGRFTISRDNAKNTVYLQMNRLKPEDTAVYYCNARYPGSWYFGQYGGYDYGYWGQGTQVTVSS", "polyreactivity (PSR sort gate)": "low polyreactivity"},
      {"sequence": "PVQLVESGGGLVQAGGSLRLSCAASGFTFRPYAMGWYRPAPGTERELVAAITSGDSTNYADSVKGRFTISRDNAKKTVYLQMNSLKPEDTAVYYCAADSTGRPSVSYDYWGQGTQVTVSS", "polyreactivity (PSR sort gate)": "low polyreactivity"},
      {"sequence": "PVQLVESGGGLVQAGGSLRLSCAASGFTFTRYVMGWYRQAPGKERELVAAISGSGGSTNYADSVKGRFTISRDNAKNTVSLQMISLKPEDTAVYYCADRFVGSRYRFDYWGQGTQVTVSS", "polyreactivity (PSR sort gate)": "high polyreactivity"},
      {"sequence": "PVQLVESGGGLVQAGGSLRLSCAASGIIFVKYAMGWYRQAPGKERELVAAISTRGGSTYYADSVKGRFTISRDNAMNTVYLQMNSLKPEDTAVYYCAADATRKSQLPNTVPYDYWGQGTQVTVSS", "polyreactivity (PSR sort gate)": "high polyreactivity"},
      {"sequence": "PVQLVESGGGLVQAGGSLRLSCAASGSTFPYYDMGWYRPAPGKEREMVAAISASTGSTYYADSVKGRFTISRDKAKITVYLHMYSLKPEVTAVYYCAAAYYYWYTAYDYWGQGTQVTVSS", "polyreactivity (PSR sort gate)": "high polyreactivity"},
      {"sequence": "PVQLVESGGGLVQAGGSLRLSCAASGSTFVVYAMGWYRQAPGKERELVAAITSGVSTNYADSVKGRFTISRDNAKNTVYLQMNSLKPEDTAVYYCNKDVRPAYRWYDYWGQDTQVTVSS", "polyreactivity (PSR sort gate)": "low polyreactivity"},
      {"sequence": "PVQLVESGGVLVQAGCILRLSCAASGSTFYGYAMGWYRQAPGKERELVAANTSTVITDYADSVKGRFTISRDNAKNTFYFQMNSLKPEVPAVYDCNKERATSVTAEFRGDDAYWVQGTQVTVSS", "polyreactivity (PSR sort gate)": "low polyreactivity"},
      {"sequence": "QAELVESGGGLVQAGGSLRLSCAASGFTFTAYAMGWYRQAPGKERELVAAISYRGGRTNYAYSVKGRFTISRDNAKNTVYLQMNSLKPEDTAVYYCAARPRISTREMDYWGQGTQVTVSS", "polyreactivity (PSR sort gate)": "high polyreactivity"},
      {"sequence": "QAQLQESCGSLVQAGGGQRLSCAASGYISVGTVIGWYRQAPSKERELVASIDQGANTNYADSVKGRFTISRDNAKNNVYLKMNSLKPEDTAVYYCATESTYILNYWGQGTQVTVSS", "polyreactivity (PSR sort gate)": "low polyreactivity"},
      {"sequence": "QAQLQESGGSLVQAGGGLRLSCAASGYISVGSVMGWYRQAPSKERELVASIDQGANTNYADSVKGRFTISRDNAKNNVYLQMNSLKPEDTAVYYCATVTTYILNYWGQGTQVTVCS", "polyreactivity (PSR sort gate)": "low polyreactivity"},
      {"sequence": "QAQLQESGGSLVQAGGGLRLSCAASGYSSVGSVMGWYRQAPSKEREHVASIDQGANTNYADSVKGRFTISRDNAKNNVYLQMTSLKPEDTAVYYCATETTYILNYWGQGTQVTVSS", "polyreactivity (PSR sort gate)": "low polyreactivity"}
    ]}
  ]
}
